Where a chain is given by its changes, count along the chain named.
B1: DVD2717 (bispecific antibody, IgG1)
VH: EVQLVESGGGLVQPGGSLRLSCAASGFTFSNYGVTWVRQAPGKGLEWVSMIWADGSTHYASSVKGRFTISRDNSKNTLYLQMNSLRAEDTAVYYCAREWQHGPVAYWGQGTLVTVSSASTKGPSVFPLAPEVQLVESGGGLVQPGGSLRLSCAASGFSLTNNNVNWVRQAPGKGLEWVGGVWAGGATDYNSALKSRFTISRDNSKNTAYLQMNSLRAEDTAVYYCARDGGYSSSTLYAMDAWGQGTLVTVSS
VL: DIQMTQSPSSLSASVGDRVTITCRASQLVSSAVAWYQQKPGKAPKLLIYWASARHTGVPSRFSGSGSGTDFTLTISSLQPEDFATYYCQQHYKTPFTFGQGTKLEIKRTVAAPDIQMTQSPSSLSASVGDRVTITCRASEDIYNALAWYQQKPGKAPKLLIYNTDTLHTGVPSRFSGSGSGTDYTLTISSLQPEDFATYFCQHYFHYPRTFGQGTKVEIKR
B2: DVD2718 (bispecific antibody, IgG1)
VH: EVQLVESGGGLVQPGGSLRLSCAASGFSLTNNNVNWVRQAPGKGLEWVGGVWAGGATDYNSALKSRFTISRDNSKNTAYLQMNSLRAEDTAVYYCARDGGYSSSTLYAMDAWGQGTLVTVSSGGGGSGGGGSEVQLVESGGGLVQPGGSLRLSCAASGFTFSNYGVTWVRQAPGKGLEWVSMIWADGSTHYASSVKGRFTISRDNSKNTLYLQMNSLRAEDTAVYYCAREWQHGPVAYWGQGTLVTVSS
VL: DIQMTQSPSSLSASVGDRVTITCRASEDIYNALAWYQQKPGKAPKLLIYNTDTLHTGVPSRFSGSGSGTDYTLTISSLQPEDFATYFCQHYFHYPRTFGQGTKVEIKRGGSGGGGSGDIQMTQSPSSLSASVGDRVTITCRASQLVSSAVAWYQQKPGKAPKLLIYWASARHTGVPSRFSGSGSGTDFTLTISSLQPEDFATYYCQQHYKTPFTFGQGTKLEIKR
B3: DVD2719 (bispecific antibody, IgG1)
VH: EVQLVESGGGLVQPGGSLRLSCAASGFSLTNNNVNWVRQAPGKGLEWVGGVWAGGATDYNSALKSRFTISRDNSKNTAYLQMNSLRAEDTAVYYCARDGGYSSSTLYAMDAWGQGTLVTVSSASTKGPEVQLVESGGGLVQPGGSLRLSCAASGFTFSNYGVTWVRQAPGKGLEWVSMIWADGSTHYASSVKGRFTISRDNSKNTLYLQMNSLRAEDTAVYYCAREWQHGPVAYWGQGTLVTVSS
VL: DIQMTQSPSSLSASVGDRVTITCRASEDIYNALAWYQQKPGKAPKLLIYNTDTLHTGVPSRFSGSGSGTDYTLTISSLQPEDFATYFCQHYFHYPRTFGQGTKVEIKRTVAAPDIQMTQSPSSLSASVGDRVTITCRASQLVSSAVAWYQQKPGKAPKLLIYWASARHTGVPSRFSGSGSGTDFTLTISSLQPEDFATYYCQQHYKTPFTFGQGTKLEIKR
B4: DVD2721 (bispecific antibody, IgG1)
VH: B3 VH
VL: DIQMTQSPSSLSASVGDRVTITCRASEDIYNALAWYQQKPGKAPKLLIYNTDTLHTGVPSRFSGSGSGTDYTLTISSLQPEDFATYFCQHYFHYPRTFGQGTKVEIKRTVAAPSVFIFPPDIQMTQSPSSLSASVGDRVTITCRASQLVSSAVAWYQQKPGKAPKLLIYWASARHTGVPSRFSGSGSGTDFTLTISSLQPEDFATYYCQQHYKTPFTFGQGTKLEIKR
B5: DVD2722 (bispecific antibody, IgG1)
VH: EVQLVESGGGLVQPGGSLRLSCAASGFSLTNNNVNWVRQAPGKGLEWVGGVWAGGATDYNSALKSRFTISRDNSKNTAYLQMNSLRAEDTAVYYCARDGGYSSSTLYAMDAWGQGTLVTVSSASTKGPSVFPLAPEVQLVESGGGLVQPGGSLRLSCAASGFTFSNYGVTWVRQAPGKGLEWVSMIWADGSTHYASSVKGRFTISRDNSKNTLYLQMNSLRAEDTAVYYCAREWQHGPVAYWGQGTLVTVSS
VL: B3 VL
B6: DVD2763 (bispecific antibody, IgG1)
VH: EVQLVESGGGLVQPGGSLRLSCAASGFTFSNYGVEWVRQAPGKGLEWVSGIWADGSTHYADTVKSRFTISRDNSKNTLYLQMNSLRAEDTAVYYCAREWQHGPVAYWGQGTLVTVSSGGGGSGGGGSEVQLVESGGGLVQPGGSLRLSCAASGFSLTNNNVNWVRQAPGKGLEWVGGVWAGGATDYNSALKSRFTISRDNSKNTAYLQMNSLRAEDTAVYYCARDGGYSSSTLYAMDAWGQGTLVTVSS
VL: DIQMTQSPSSLSASVGDRVTITCKASQLVSSAVAWYQQKPGKAPKLLIYWASTLHTGVPSRFSGSGSGTDFTLTISSLQPEDFATYYCQQHYRTPFTFGQGTKLEIKRGGSGGGGSGDIQMTQSPSSLSASVGDRVTITCRASEDIYNALAWYQQKPGKAPKLLIYNTDTLHTGVPSRFSGSGSGTDYTLTISSLQPEDFATYFCQHYFHYPRTFGQGTKVEIKR
B7: DVD2764 (bispecific antibody, IgG1)
VH: EVQLVESGGGLVQPGGSLRLSCAASGFTFSNYGVEWVRQAPGKGLEWVSGIWADGSTHYADTVKSRFTISRDNSKNTLYLQMNSLRAEDTAVYYCAREWQHGPVAYWGQGTLVTVSSASTKGPEVQLVESGGGLVQPGGSLRLSCAASGFSLTNNNVNWVRQAPGKGLEWVGGVWAGGATDYNSALKSRFTISRDNSKNTAYLQMNSLRAEDTAVYYCARDGGYSSSTLYAMDAWGQGTLVTVSS
VL: B1 VL with R24K, A53T, R54L, K93R
B8: DVD2767 (bispecific antibody, IgG1)
VH: B1 VH with T35E, M50G, S61D, S62T, G65S
VL: B1 VL with R24K, A53T, R54L, K93R
B9: DVD2768 (bispecific antibody, IgG1)
VH: B2 VH with T167E, M182G, S193D, S194T, G197S
VL: B2 VL with R141K, A170T, R171L, K210R

Key:
[1] = target: Recombinant Human TNF-α/TNFSF1A (human, UniProt P01375 77-233); experiment: cell-based or functional assay
[2] = target: Recombinant Human β-NGF (human, UniProt P01138 122-241); experiment: cell-based or functional assay
Chain of Recombinant Human β-NGF (P01138 122-241 limits assumed): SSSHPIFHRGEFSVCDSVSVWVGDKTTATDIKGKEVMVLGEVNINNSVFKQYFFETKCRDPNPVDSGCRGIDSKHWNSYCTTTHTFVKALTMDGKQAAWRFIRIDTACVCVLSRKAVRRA

Chain of Recombinant Human TNF-α/TNFSF1A (P01375 77-233 limits assumed): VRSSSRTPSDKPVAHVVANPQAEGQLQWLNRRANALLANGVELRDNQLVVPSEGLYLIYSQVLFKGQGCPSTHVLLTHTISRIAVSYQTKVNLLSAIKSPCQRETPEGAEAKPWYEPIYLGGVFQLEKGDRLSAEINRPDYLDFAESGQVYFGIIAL

Binder	N-Terminal VD huTNFα Neutralization Assay IC50 [1] [nM]	C-Terminal VD NGF Neutralization Assay IC50 [2] [nM]	C-Terminal VD huTNFα Neutralization Assay IC50 [1] [nM]	N-Terminal VD NGF Neutralization Assay IC50 [2] [nM]
B1	0.278	0.936		
B2			0.249	0.008
B3			0.126	0.019
B4			0.029	0.041
B5			0.19	0.053
B6	0.004	0.871		
B7	0.012	4.1		
B8	0.01	0.646		
B9			0.189	0.003
